Test results: patent US20100120063A1, “GPCR Arrestin Assays” (DISCOVERX CORPORATION, priority 2008, published 2010)

Key:
[1] = target: T1, OPRM1-PK and PROKR2 (Homo sapiens, UniProt Q8NFJ6); experiment: Transactivation assay, U2OS cells co-expressing OPRM1-PK and PROKR2 (FIG. 14C); type: cell-based
T1 construct: expressed in transfected cells; host or cells: U2OS
Experimental: (§1) For all assays, 10,000 cells per well were seeded in 20 μL media and incubated overnight in 1% Fetal Bovine Serum and appropriate basal media (F-12 or DMEM). For agonist assays, 5 μL compound was added to cells and incubated at Room Temp. […] Arrestin-EA complex formation with the GPCR was detected with 50% (v/v) of PathHunter Detection Reagent (Dx 93-0001, PathHunter reagents are available from DiscoveRx, Corp., Fremont, Calif.) (Lysis buffer active ingredient 2% CHAPS, Emerald II and Galacton star are from Applied Biosystems.) Data was read on Packard Victor 2 or PerkinElmer ViewLux readers and analyzed using GraphPad Prism 4.

[2] = target: T2, OPRM1-PK (Homo sapiens, UniProt P35372); experiment: Arrestin-EA EFC agonist assay, U2OS cells expressing OPRM1-PK only; type: cell-based; conditions: U2OS OPRM1-PK only
T2 construct: PK (beta-galactosidase ED); expressed in transfected cells; host or cells: U2OS
T2 sequence (P35372 whole entry): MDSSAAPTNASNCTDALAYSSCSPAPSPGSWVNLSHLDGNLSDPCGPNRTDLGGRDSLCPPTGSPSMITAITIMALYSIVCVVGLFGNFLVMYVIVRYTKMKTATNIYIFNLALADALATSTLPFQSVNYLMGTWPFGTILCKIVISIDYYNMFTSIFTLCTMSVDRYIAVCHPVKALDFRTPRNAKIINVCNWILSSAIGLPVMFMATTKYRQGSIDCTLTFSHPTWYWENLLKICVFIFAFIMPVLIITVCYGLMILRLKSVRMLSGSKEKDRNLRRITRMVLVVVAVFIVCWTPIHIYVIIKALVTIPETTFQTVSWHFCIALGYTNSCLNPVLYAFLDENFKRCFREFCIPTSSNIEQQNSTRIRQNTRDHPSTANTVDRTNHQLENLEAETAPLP
Experimental: as §1

T1 sequence (Q8NFJ6 whole entry, species assumed): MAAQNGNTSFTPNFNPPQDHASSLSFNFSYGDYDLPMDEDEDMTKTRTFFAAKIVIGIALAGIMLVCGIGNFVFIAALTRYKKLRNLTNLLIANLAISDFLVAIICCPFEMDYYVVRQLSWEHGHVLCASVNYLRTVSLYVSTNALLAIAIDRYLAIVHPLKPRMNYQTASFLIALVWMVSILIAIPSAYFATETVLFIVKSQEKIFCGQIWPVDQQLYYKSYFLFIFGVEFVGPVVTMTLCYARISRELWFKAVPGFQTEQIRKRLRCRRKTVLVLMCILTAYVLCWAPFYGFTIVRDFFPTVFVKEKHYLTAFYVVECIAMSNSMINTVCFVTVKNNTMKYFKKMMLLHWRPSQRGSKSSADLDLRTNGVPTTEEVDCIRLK

B1: EG-VEGF: PROKR2 ligand, EG-VEGF/prokineticin (protein)
chain: AVITGACERDVQCGAGTCCAISLWLRGLRMCTPLGREGEECHPGSHKVPFFRKRKHHTCPCLPNLLCSRFPDGRYRCSMDLKNINF
**Q.** How did the EC50 ([1]; FIG. 14C) turn out when B1 was run?
**A.** Its EC50 is 52.2 nM.

**Q.** And the HILLSLOPE ([1]; FIG. 14C)?
**A.** The HILLSLOPE was 1.328.

**Q.** And the “transactivation response” value ([1]; OPRM1-PK and PROKR2 coexpressed)?
**A.** Its value is “weak response”.

**Q.** And the BOTTOM ([1]; curve fit, signal, FIG. 14C)?
**A.** Its BOTTOM is 294.3.

**Q.** And the TOP ([1]; curve fit, signal, FIG. 14C)?
**A.** Its TOP is 9875.

**Q.** And the LOGEC50 ([1]; log of EC50, negative sign as printed, FIG. 14C)?
**A.** Its LOGEC50 is −7.282.

**Q.** And the EC50 [2]?
**A.** Its EC50 is 32.1 nM.

**Q.** What about the HILLSLOPE [2] of the same molecule?
**A.** The HILLSLOPE was 1.011.

**Q.** What about the BOTTOM ([2]; curve fit, signal) of the same molecule?
**A.** Its BOTTOM is 25.82.

**Q.** What about the TOP ([2]; curve fit, signal) of the same molecule?
**A.** Its TOP is 57.34.

**Q.** What about the LOGEC50 ([2]; log of EC50, negative sign as printed) of the same molecule?
**A.** Its LOGEC50 is −7.493.
